Reference: the DeepSol protein solubility set

test: soluble on expression in E. coli; label from the status in PepcDB or PDB records

Q: With “MFSLSKTLAALLLCSAASLAQAAETAICYNCPPEWADWGTQLKAIADSTSVQVPLDNKNSGQALAQIVAEQAAPVADVVYYGVTFGLQAQKAGVVDTYKPKHWDDIPAGLKDPQGHWFAIHSGTLGIMVNVDALGGLPVPQSWADLLKPEYKGMVGYLDPSSAFVGYVSAVAINQAMGGSLDNFGPAIDYFQKLAKNSPIVPKQTAYARALSGELPILVDYDFNAYRARYKDKANVAFVIPKEGTIGVPYVMSMVAKAPHRANAEKVLDFVLSDAGQALWAKAYLRPVRSKMPADVAAQFLPDSDYARAGVVDYQRMAAVQEAFAARYLREVK” as the sequence, how does the “soluble on expression in E. coli” value read?
A: not soluble

Q: Which “soluble on expression in E. coli” value does the source give for “ASTTTPTLRLNWLQPPFNNQKVRQALLHAVSQRDYMDAQVGDPKAYRVCWAMFGCDSPLASTAGVVSQDDEADLNAAKALLKESGYKNEKAVVLHATDYPPTSAIAPFTAQILRSIGMKAEVQSMDWATFLTRRGKQDPVEKGGWSVAYGSWNTLDLMSPIANLNLDGRGKEGYAGWTESAEMESLRTQYAQATEPASRQQIAAKIQQLAYDQVFYIPLGTY” here?
A: not soluble

Q: For “MGSDKIHHHHHHMMEGKDDADLFADLGLSESIASIPSYTFIRDGLNRIFASSNNIWNVLIGTRLTPPKPLSDYDLVHIHNPVPLAGMVSVALHCRIKGIPYCVTTHGISKVPKIPEELGLSRGQRIVFNHGFLRAYKNVLSNATHLFALSEGDQDTITEWFSDQSVSVLPNGVDLNVSPEAPEVDTKVDLPDKPVLLFVGRIMASKGVDDLLEAFSLLEHDCKLIIVGPMRDEHFKDQIHTLSDDVEYRGYVEQAELDALYRRADLFVFPTRSDVFPLVTLEAMAAGTPVVSTTVGGLPEQIPDQVGRLVPPKEPKTFAAAVDGMLSNEQLRTEMGRAGKSLVEERYSWEAVAKAAVTEYYRIVN”, which “soluble on expression in E. coli” value is on record?
A: not soluble

Q: Which “soluble on expression in E. coli” value does the source give for “MSLENTTQIPESELHNLGLTDEEIQEFNQYLIDESLFQETVETSPIVVSDNEDAAQDPGFGLFTTNPVKHTDEHIGALYFSDLPGISNLTCTANYIGGKFWTTAHHCVEGRSRFVGFIEQSDGQYAGIEHVYTKSSDYDIALIKVGSGIDAEQFSLTRSRPAVGKMLEVVGFAVVNPFSSRATMEVTNSNTVANYPMSNLYYKDVFSAKPAGSFPYVISGGDSGAAVWSGETMYGIASGSNGSTKNLAANVGPHVSWIEQTMQNNSNSSPYEILQAFRGGLATSYPKYNQIRDLVDSSEGHHHHHH” here?
A: soluble

Q: For “MGSDKIHHHHHHMSELNNQLWASADILRGKMDASEYKNYLLGLVFYKYLSDQELRAVYEEEQGKVAEYPSRDEQFSGLLDWYNDDAAGIREIISKKLGYFIEPDSLFYTFRKKAGEYELHISDIQNAFIELGRQGEHFAGLFDDVDLASTKLGANAQQRNVTITEVIKALDEIDLFGHDGDVIGDAYEYLIGQFAAGAGKKAGEFYTPQAVSKIISEIVAIGQEETAPFHIYDPTMGSGSLMLNIRRFVKNPGQVHYHGQELNTTTYNLARMNLILHNVEQSQMRLRNGDTLDEDWPTDEPYLFNAVVMNPPYSANWSADGKFLSDPRFEQYGKLAPKSKADFSFLLHGFYHLNEKGTMGIVLPHGVLFRGASEGVIRKTLLDMGAIEAVIGLPANIFYGTSIPTVVLILKKNRAKRDVLFIDASKAFEKQKNQNCIRSQDIRKIVDTYKKRSSSPQYAHLADYDEIVRNDYNLNIPRYVDTFEEEAPIDIVALSKEITDLNLQIKQREAEFLGMLSQLAITDETKELIEATKGIFM”, which “soluble on expression in E. coli” value is on record?
A: not soluble

Q: Which “soluble on expression in E. coli” value does the source give for “QVQLQQSGTELVKSGASVKLSCTASGFNIKDTHMNWVKQRPEQGLEWIGRIDPANGNIQYDPKFRGKATITADTSSNTAYLQLSLTSEDTAVYYCATKVIYYQGRGAMDYWGQGTTLTVS” here?
A: soluble

Q: For “SMVFDSESNLDRFLRCTTPIVPAYSLPKTQIKNLNPLWYPLESQSVEYFRLGDFWDCFDEWSAYGAGVPIVSETGETLVQYYVPYLSAIQIFTSHSVINTLREETESGDSGSESCSEEWRWEGCSSSEEGFDHQEPLDRLGYSYLQYFERCTPYSRVPLMDKIKELGERYVGLRSLRSVDLSPASWMAVAWYPIYHIPMNRSIKDLSTCFLTYHTLSSSFQDVKREEEKERISVSAFGMATYKMQGRLWDNDRLLCFLSVADSWLKQLRVHHHDFTYFTTTTHYL”, which “soluble on expression in E. coli” value is on record?
A: soluble

Q: Which “soluble on expression in E. coli” value does the source give for “MGSDKIHHHHHHMTHPLLAIDNLSIAFRQQGETQTVVHNLSLEVAVGETLALVGESGSGKSISALSVLRLLPTPPASYPSGDIRFHGQSLLHADEATLRGVRGNRIAMIFQEPMVSLNPLHTLEKQLYEVLSLHRGMRKQAARGEILDCLERVGIRQAPRRLADYPHQLSGGERQRVMIAMALLTRPELLIADEPTTALDVSVQAQILQLLRELKQELNMGLLFITHNLSIVRQLADRVAVMQNGRCVEHNDCRALFSAPAHPYTQRLLDSEPDGEPVPLAADAPVLLQADDLKVAFPVRKGILRRVVDHHRVVNSLSFQLRAGETLGLVGESGSGKSTTGLALLRLIPSGGKITFAGQPIQGRNRRQLLPLRRQMQVVFQDPNSSLNPRLTAQQIIEEGLRVHQPTLTAAEREQAVILAMQEVGLDPASRQRYPAAFSGGQRQRIAIARALIVKPQLIVLDEPTSSLDKTVQAQILNLLKALQRKHQLAYIFISHDLGVVRALCHQVMVLRQGEVVEQGECKSVFSAPRHEYTRQLLALS” here?
A: not soluble

Q: With “MGDDCSDHSSLCKHCCYEMIRDSIKDYKSGPLYARCPQCFRNISSLTRRKRRLTSEGHDENCPAPMVPMVNAEHSISLCDYTTSMMGGGQVNKGFESSSSLFLCFRKFPIGNYNQKFFVGDSLKNGRIQYRNTKYEYSKKHFRSYKFFMIFQICRSKFQNL” as the sequence, how does the “soluble on expression in E. coli” value read?
A: not soluble

Q: With “QDDSRYTKFLTQHHDAKPKGRDDRYCERMMKRRSLTSPCKDVNTFIHGNKSNIKAICGANGSPYRENLRMSKSPFQVTTCKHTGGSPRPPCQYRASAGFRHVVIACENGLPVHFDESFFSL” as the sequence, how does the “soluble on expression in E. coli” value read?
A: soluble

Q: For “HSDPARRGQLSVCDSISEWVTAADKKTAVDMSGGTVTVLEKVPVSKGQLKQYFYETKCNPMGYTKEGCRGIDKRHWNSQCRTTQSYVRALTMDSKKRIGWRFIRIDTSCVCTLTIKRGR”, which “soluble on expression in E. coli” value is on record?
A: soluble

Q: With “MVRIDLGIKGKKVIVTAASKGIGFATAKRFLEEGAKVIISSHDENNLRKAYERLKNLGEVNYIIADLTKPSDVENLIKSGYSTLGGLDVLVYVTGSPKPGNLFELTNEDWINAFYLLLMSAVIAVREAGKLMKSGGRIILSTSMTLKEPLPNLDLSNVVRLSLAGLIKVAARELGEKGILVNGVMPGWTLTDRVDQLVKDRAKREGRSEEEIIRDITRDVPLKRIGKPEEVANVILFLASELSTYVNGVLIPVDGGLIKATL” as the sequence, how does the “soluble on expression in E. coli” value read?
A: soluble

Q: For “MAQRRESLNMGEFAEEAIIVEEVAAPKRVNHFIEANTQEVTLQHLQQDCIIPSFASMEETISHQSFIGAVVDAAKDYFHGEQFDMPEIRISHPINGRIPSALGKKASELTDEEKTLFYQRMCFCFEIPSIVHDEYGNRLALSIGGVRAYNEINLYSKKSVERFKIFIGFRNRVCSNLMLTTDGLQDKIEVLSIQELYAAALNLFHAYNPSKDLHLLRTLGQMSISTSEFCQIIGRMRLYQALTPNQQKRLPRLLLGDSQINAACRAFVSDANFKSTGDSITGWQLLNLLNGSVKSSYIDNFLERNLNCTEFVQGIQRAKLGDSEYAWFLG”, which “soluble on expression in E. coli” value is on record?
A: not soluble

Q: Which “soluble on expression in E. coli” value does the source give for “MVSITSDAIRNALHKVKGPNFESDIVSLGLLSEILVVHGKVFFSITVPDGRVQEWESLRRSVEEVVSALDGVEAVFVTLTTERRPEMSSQLQRDEVFFAPKRRANRLLEKMPIEGVRHVVAVASGKGGVGKSTMAINIALALQDSGFKTGLMDADIYGPSLPRLTGLVNQKPQYIDGKKLHPLEKFGLKLMSMGFLVEEENPVVWRGPMVMAAVTQLLRDVLWGPLDVLVVDMPPGTGDAQLTLAQQVQLTGALIVSTPQDLALVDARKAMEMFMKVNVPILGLIENMSYFIAPDTGKRYDIFGYGGTRAEARRRGVPFLAEVPLDAALRSSSDDGIPIFVAKPDEEHTKLYRSIVGQIKNKFF” here?
A: not soluble

Q: For “MQVIAFIAPLIDKGMDPLTGVPIRQEVPRLMERTFQENQAETYVLFLINLDRFKLVNDSLGEGYGDQVLQTLVRRLLWQLPNQQWIARVSGDEFIACAAIKGELPKKETLATYISSIIQQPFQVDEVQFTMTASIGAAVYPMDGKSVEMIWNSLERALRHAKARGGNCVSWFCQELKDEWIHPFRLENDLRRAVENQELEHHHHHH”, which “soluble on expression in E. coli” value is on record?
A: not soluble
